According to the supplement of paper PMC7877785:
± gives the uncertainty stated by the source.

Assay: self-splicing fitness, log relative to wild type (ln ratio); higher = more splicing; Tetrahymena group I intron in knt gene, E. coli kanamycin selection, DiMSum; sequences stand for … in CUCUCU…GGAGGGAAAAGUUAUCAGGCAUGCACCUGGUAGCUAGUCUUUAAACCAAUAGAUUGCAUCGGUUUAAAAGGCAAGACCGUCAAAUUGCGGGAAAGGGGUCAACAGCCGUUCAGUACCAAGUCUCAGGGGAAACUUUGAGAUGGCCUUGCAAAGGGUAUGGUAAUAAGCUGACGGACAUGGUCCUAACCACGCAGCCAAGUCCUAAGUCAACAGAUCUUCUGUUGAUAUGGAUGCAGUUCACAGACUAAAUGUCGGUCGGGGAAGAUGUAUUCUUCUCAUAAGAUAUAGUCGGACCUCUCCUUAAUGGGAGCUAGCGGAUGAAGUGAUGCAACACUGGAGCCGCUGGGAACUAAUUUGUAUGCGAAAGUAUAUUGAUUAGUUUUGGAGUACUCGUGGUCG
In short: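 DiMSum derived fitness as the error-weighted combination of fold changes across replicates, kanamycin versus no kanamycin, normalised to wild type. E. coli BL21(DE3) held the library, which randomised all eight P1ex-region intron nucleotides within the knt kanamycin-resistance gene on pET-22b(+). Six replicate transformations grew overnight at 37°C or 30°C on LB agar with or without 25 μg/mL kanamycin, also containing 100 μg/mL carbenicillin, 50 μM IPTG and 0.2% rhamnose, and pooled colonies were amplicon-sequenced on an Illumina HiSeq 2500.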

Sequence	self-splicing fitness (ln) (30 °C)	self-splicing fitness (ln) (37 °C)
ACGAAGCAAUAUUACGGGGA	-2.81 ± 0.21	-1.57 ± 0.16
ACGAAGCAAUAUUACGGUAA	-2.49 ± 0.17	-1.33 ± 0.14
ACGAAGCAAUAUUACGGUCA	-1.35 ± 0.14	-0.053 ± 0.13
ACGAAGCAAUAUUACGUACG	-3.8 ± 0.33	-0.988 ± 0.15
ACGAAGCAAUAUUACGUCAC	-4.98 ± 0.39	-2.43 ± 0.16
ACGAAGCAAUAUUACGUCGU	-3.41 ± 0.29	-3.5 ± 0.42
ACGAAGCAAUAUUACGUGUC	-3.76 ± 0.15	-2.7 ± 0.17
ACGAAGCAAUAUUACGUUAC	-3.77 ± 0.4	-1.17 ± 0.16
ACGAAGCAAUAUUACGUUUA	-2.05 ± 0.11	-0.875 ± 0.085
ACGCAGCAAUAUUACGAAAA	-2.91 ± 0.23	-2.7 ± 0.2
ACGCAGCAAUAUUACGAAGU	-3.6 ± 0.27	-0.721 ± 0.13
ACGCAGCAAUAUUACGACAG	-1.11 ± 0.076	-0.445 ± 0.099
ACGCAGCAAUAUUACGACUU	-0.543 ± 0.077	0.0674 ± 0.09
ACGCAGCAAUAUUACGAGUC	-4.93 ± 0.27	-2.26 ± 0.18
ACGCAGCAAUAUUACGAGUG	-2.14 ± 0.052	-1.32 ± 0.062
ACGCAGCAAUAUUACGAUAG	-4.2 ± 0.21	-2.65 ± 0.19
ACGCAGCAAUAUUACGCAAC	-3.91 ± 0.32	-1.83 ± 0.18
ACGCAGCAAUAUUACGCACC	-0.334 ± 0.18	-0.22 ± 0.18
ACGCAGCAAUAUUACGCAGG	–	-1.05 ± 0.15
ACGCAGCAAUAUUACGCAGU	-3.29 ± 0.16	-2.78 ± 0.21
ACGCAGCAAUAUUACGCAUA	-2.18 ± 0.13	-0.994 ± 0.12
ACGCAGCAAUAUUACGCGGC	-3.37 ± 0.17	-3.06 ± 0.25
ACGCAGCAAUAUUACGCUCA	-0.563 ± 0.063	0.124 ± 0.088
ACGCAGCAAUAUUACGCUGC	-3.38 ± 0.43	-3.02 ± 0.29

Sequence	self-splicing fitness (ln) (30 °C)	self-splicing fitness (ln) (37 °C)
ACGCAGCAAUAUUACGGCCG	-1.66 ± 0.11	-0.0837 ± 0.15
ACGCAGCAAUAUUACGGGAG	-2.73 ± 0.11	-1.62 ± 0.11
ACGCAGCAAUAUUACGGGUC	-4.12 ± 0.21	-2.92 ± 0.17
ACGCAGCAAUAUUACGGUCA	-1.15 ± 0.069	-0.339 ± 0.069
ACGCAGCAAUAUUACGUAAA	-2.06 ± 0.12	-1.95 ± 0.2
ACGCAGCAAUAUUACGUAAU	-2.48 ± 0.083	-2.13 ± 0.12
ACGCAGCAAUAUUACGUCCG	-0.744 ± 0.085	-0.408 ± 0.1
ACGCAGCAAUAUUACGUUAG	-4.1 ± 0.16	-2.46 ± 0.12
ACGGAGCAAUAUUACGAAAU	-2.71 ± 0.22	-1.76 ± 0.24
ACGGAGCAAUAUUACGAAGA	–	-0.799 ± 0.24
ACGGAGCAAUAUUACGAAUG	-3.88 ± 0.43	-0.307 ± 0.27
ACGGAGCAAUAUUACGACAC	-4.35 ± 0.42	-1.94 ± 0.37
ACGGAGCAAUAUUACGCAAG	-3.14 ± 0.27	-1.79 ± 0.26
ACGGAGCAAUAUUACGCACG	-3.77 ± 0.35	-2.71 ± 0.37
ACGGAGCAAUAUUACGCAUA	-3.27 ± 0.21	-2.86 ± 0.22
ACGGAGCAAUAUUACGGCCG	-1.98 ± 0.16	-2.03 ± 0.28
ACGGAGCAAUAUUACGGCUA	-1.96 ± 0.21	-0.548 ± 0.14
ACGGAGCAAUAUUACGGCUU	-3.11 ± 0.4	–
ACGGAGCAAUAUUACGGGAA	-4.37 ± 0.36	-2.03 ± 0.31
ACGGAGCAAUAUUACGGGCU	-2.7 ± 0.25	-2.43 ± 0.27
ACGGAGCAAUAUUACGUAUC	-2.75 ± 0.2	-2.52 ± 0.29
ACGGAGCAAUAUUACGUCGU	-2.98 ± 0.26	-2.48 ± 0.19
ACGGAGCAAUAUUACGUGGU	-3.91 ± 0.4	-1.08 ± 0.2
ACGGAGCAAUAUUACGUGUA	-3.72 ± 0.29	-3.03 ± 0.23

Sequence	self-splicing fitness (ln) (30 °C)	self-splicing fitness (ln) (37 °C)
ACGGAGCAAUAUUACGUUCG	-1.33 ± 0.097	-0.333 ± 0.13
ACGGAGCAAUAUUACGUUCU	-3.16 ± 0.31	-2.52 ± 0.22
ACGGAGCAAUAUUACGUUUG	-2.3 ± 0.12	-2.31 ± 0.19
ACGUAGCAAUAUUACGAAGG	-2.19 ± 0.21	-3.97 ± 0.46
ACGUAGCAAUAUUACGAAGU	-2.97 ± 0.2	-2.86 ± 0.21
ACGUAGCAAUAUUACGACAC	-1.46 ± 0.21	-0.658 ± 0.18
ACGUAGCAAUAUUACGACGU	-2.97 ± 0.15	-2.31 ± 0.19
ACGUAGCAAUAUUACGAGAC	-2.37 ± 0.3	–
ACGUAGCAAUAUUACGCACA	-0.463 ± 0.12	-0.501 ± 0.13
ACGUAGCAAUAUUACGCAUA	-1.82 ± 0.13	-1.2 ± 0.12
ACGUAGCAAUAUUACGCCAG	-1.59 ± 0.18	-2.19 ± 0.45
ACGUAGCAAUAUUACGCCUC	-2.48 ± 0.38	-2.16 ± 0.41
ACGUAGCAAUAUUACGCGCA	-0.687 ± 0.076	-0.337 ± 0.097
ACGUAGCAAUAUUACGGAAG	-3.32 ± 0.3	-1.91 ± 0.28
ACGUAGCAAUAUUACGGAAU	-2.29 ± 0.15	-2.07 ± 0.17
ACGUAGCAAUAUUACGGACG	-1.88 ± 0.17	-0.579 ± 0.13
ACGUAGCAAUAUUACGGAUC	-1.97 ± 0.096	-0.313 ± 0.097
ACGUAGCAAUAUUACGGAUG	-4.2 ± 0.24	-2.42 ± 0.21
ACGUAGCAAUAUUACGGUGU	-2.43 ± 0.11	-1.81 ± 0.14
ACGUAGCAAUAUUACGUACU	-1.11 ± 0.11	-2 ± 0.14
ACGUAGCAAUAUUACGUAUU	-3.93 ± 0.17	-2.48 ± 0.15
ACGUAGCAAUAUUACGUGGA	-3.46 ± 0.32	-2.2 ± 0.23
ACGUAGCAAUAUUACGUUAG	-3.99 ± 0.16	-2.13 ± 0.15
ACGUAGCAAUAUUACGUUCU	-2.3 ± 0.097	-0.807 ± 0.076

Sequence	self-splicing fitness (ln) (30 °C)	self-splicing fitness (ln) (37 °C)
ACUAAGCAAUAUUACGAAAG	-1.76 ± 0.14	-1.55 ± 0.16
ACUAAGCAAUAUUACGAACC	-0.514 ± 0.16	-1.24 ± 0.24
ACUAAGCAAUAUUACGACUC	-0.352 ± 0.12	0.402 ± 0.14
ACUAAGCAAUAUUACGAUCC	-1.02 ± 0.14	-0.609 ± 0.16
ACUAAGCAAUAUUACGAUGU	-1.62 ± 0.1	-1.38 ± 0.13
ACUAAGCAAUAUUACGAUUG	-2.62 ± 0.13	-1.5 ± 0.14
ACUAAGCAAUAUUACGCAGC	-2.94 ± 0.36	-0.621 ± 0.18
ACUAAGCAAUAUUACGCCGC	-3.02 ± 0.35	-1.86 ± 0.41
ACUAAGCAAUAUUACGCCUU	-1.09 ± 0.082	-0.381 ± 0.11
ACUAAGCAAUAUUACGCGUA	-1.2 ± 0.11	-0.501 ± 0.13
ACUAAGCAAUAUUACGGAUG	-2.49 ± 0.12	-1.42 ± 0.13
ACUAAGCAAUAUUACGGCUC	-0.0701 ± 0.093	0.329 ± 0.11
ACUAAGCAAUAUUACGGUGG	-3.1 ± 0.11	-2.84 ± 0.16
ACUAAGCAAUAUUACGUAAA	-2.48 ± 0.13	-1.6 ± 0.14
ACUAAGCAAUAUUACGUACC	-1.05 ± 0.16	-0.715 ± 0.2
ACUAAGCAAUAUUACGUAGA	-3.25 ± 0.12	-1.28 ± 0.1
ACUAAGCAAUAUUACGUCUC	-2.79 ± 0.16	-0.208 ± 0.14
ACUAAGCAAUAUUACGUUAC	-3.81 ± 0.2	-3.08 ± 0.3
ACUAAGCAAUAUUACGUUCU	-0.391 ± 0.071	-0.412 ± 0.094
ACUAAGCAAUAUUACGUUGC	-3.69 ± 0.27	-2.77 ± 0.22
ACUCAGCAAUAUUACGAUUC	-1.63 ± 0.087	-0.302 ± 0.1
ACUCAGCAAUAUUACGCAAU	-1.37 ± 0.078	-0.643 ± 0.093
ACUCAGCAAUAUUACGCACC	-1.19 ± 0.094	0.495 ± 0.11
ACUCAGCAAUAUUACGCAGG	-1.99 ± 0.11	-1.35 ± 0.13
